One assay concerns GFP–talin1–cBAK. The assay can be described thus: Mitochondrial targeting system (MTS): recruitment of mCherry–KANK1 by GFP–talin1–cBAK. The class given is cell-based. As to conditions: NIH3T3 fibroblasts and HEK293T cells; fluorescence microscopy colocalization. The text has this:
To examine the effect of these KANK1 mutations on talin interactions in cells, we next used a mitochondrial targeting system (MTS) which we previously used to screen for defined protein–protein interactions. In this assay, one protein is fused to a small peptide sequence from the pro-apoptotic protein BAK (cBAK) which leads to its insertion into the outer membrane of mitochondria. Proteins that interact with the cBAK-tagged protein will get recruited to mitochondria, and this recruitment can be verified either by visualizing colocalization using fluorescence microscopy (figure 4a) or by purification of mitochondria followed by detection of co-precipitates using biochemistry (figure 4b,c). […] To confirm that the interaction was meditated by the R7 domain, we performed the colocalization assays with truncated talin constructs.
(§1) NIH3T3 mouse fibroblasts and HEK293T human epithelial cells were obtained from the American Type Culture Collection (ATCC). The vinculin null and WT mouse embryonic fibroblasts (MEFs) originate from the Eileen Adamson laboratory. All cells were maintained in Dulbecco's Modified Eagle Medium (DMEM; Sigma) supplemented with 10% fetal bovine serum (FBS, Gibco), 1% L-glutamine (Sigma) and 1% non-essential amino acids (Sigma). Talin1&2 null cells were cultured in DMEM F-12 (Gibco) supplemented with 10% FBS, 1% L-glutamine, 1% non-essential amino acids and […] HEPES (Sigma). All cells were cultured at 37̊C supplied with 5% CO2 and 95% humidity. Transient transfections were performed using Lipofectamine LTX with Plus Reagent (Invitrogen) to NIH3T3 cells, Lipofectamine 2000 (Invitrogen) to talin null cells, and jetPRIME reagent (Polyplus) to MEFs and HEK293T cells, as per the manufacturer's instructions.
(§2) For the construction of mCherry-KANK1, human FL-KANK1 (generous donation from the Bershadsky laboratory) cDNA was tagged in the C-terminal site with pmCherry (Clontech) by restriction digestion. Point mutations (L41E, L43E, F45E and V49E) were introduced in mCherry-KANK1 by site-directed mutagenesis (NEB) using the following oligonucleotides: […]ga[…] and […] for L41E; […]ga[…] and […] for L43E; […]gaa[…] and […] for F45E; […]a[…] and […] for V49E. Generation of GFP–talin1–cBAK and GFP–cBAK was as previously described. G1404L was introduced on GFP–talin1–cBAK by the method above using […]ctt[…] and […]. To generate GFP–talin1 R7DD–cBAK and GFP–talin1 R9DD-cBAK constructs, R7-DD (3555 bp) and R9-DD (2661 bp) were amplified from talin-1 (Mus musculus). Restriction digestion with XhoI and HindIII FastDigest enzymes (Thermo Scientific) was used to linearize GFP–cBAK. DNA assembly was performed to join R7-DD and R9-DD to linearized the GFP–cBAK vector using the NEBuilder HiFi DNA assembly kit (NEB).
(§3) Images of fixed samples in PBS were acquired at room temperature using an Olympus IX83 inverted microscope equipped with a 60×/1.42 PlanApo N oil objective and a QImaging Retiga R6 CCD camera, controlled by Metamorph software. Samples were illuminated using LEDs (UV/Cyan/Green-Yellow/Red, Lumencor) for fluorescence excitation; a Sedat filter set (DAPI/FITC/TRITC/Cy5, Chroma, 89000) was used.

The subject of another assay is talin1-cBAK. Kind of assay: Mitochondria pulldown of KANK1 WT or point mutations, Western blot. As to conditions: HEK293T cells; mitochondrial pulldown, triplicate experiments, normalized to WT; *** p < 0.001 (one-way ANOVA, Dunnett's). The assay is classed as cell-based.
Text: as §2
For fixed cell imaging, cells were cultured in glass-bottom dishes (IBL) coated with bovine fibronectin (Sigma) at a final concentration of 10 µg ml^−1. Samples were fixed in 4% paraformaldehyde (PFA, Sigma), and warmed to 37̊C, for 15 min before being washed three times with PBS. For immunofluorescence staining, samples were permeabilized at room temperature with 0.5% Triton X-100 (Sigma) for 5 min before being washed three times. […]
Protein samples were extracted from cells and mitochondria, respectively, using RIPA lysis buffer (Chromotek) supplemented with protease inhibitors. […] Primary antibody signal was detected using goat anti-mouse IgG conjugated to IRDye 680RD (ab216776, abcam) and goat anti-rabbit IgG conjugated to IRDye 800CW (ab216773, abcam) secondary antibodies, diluted 1 : 15 000, imaged with an Odyssey CLx imaging system (LI-CO Biosciences). […]
Background: Immunoblotting shows a protein as a band on a membrane.

In assay [1] the test system is focal adhesions of NIH3T3 fibroblasts. The assay can be described thus: KANK1 localization to focal adhesions (co-expression with GFP–paxillin). The assay is classed as cell-based, mouse. To be noted: NIH3T3 fibroblasts co-expressing GFP–paxillin. The procedure: as §1, §2, §3
Assay [2] concerns α/β liprin in NIH3T3 fibroblasts. The assay can be described thus: α/β liprin localization (CMSC assembly). The assay is classed as cell-based, mouse. To be noted: NIH3T3 fibroblasts co-transfected with GFP–paxillin and mCherry–KANK1 F45E; immunostaining. The procedure:
as §1, with “instructions. […]” for “instructions.”
as §3

B1: KANK1 F45E: mCherry-KANK1 with point mutation F45E (protein)
chain: MAHTTKVNGSASGKAGDILSGDQDKEQKDPYFVETPYGYQLDLDELKYVDDIQKGNTIKRLNIQKRRKPSVPCPEPRTTSGQQGIWTSTESLSSSNSDDNKQCPNFLIARSQVTSTPISKPPPPLETSLPFLTIPENRQLPPPSPQLPKHNLHVTKTLMETRRRLEQERATMQMTPGEFRRPRLASFGGMGTTSSLPSFVGSGNHNPAKHQLQNGYQGNGDYGSYAPAAPTTSSMGSSIRHSPLSSGISTPVTNVSPMHLQHIREQMAIALKRLKELEEQVRTIPVLQVKISVLQEEKRQLVSQLKNQRAASQINVCGVRKRSYSAGNASQLEQLSRARRSGGELYIDYEEEEMETVEQSTQRIKEFRQLTADMQALEQKIQDSSCEASSELRENGECRSVAVGAEENMNDIVVYHRGSRSCKDAAVGTLVEMRNCGVSVTEAMLGVMTEADKEIELQQQTIESLKEKIYRLEVQLRETTHDREMTKLKQELQAAGSRKKVDKATMAQPLVFSKVVEAVVQTRDQMVGSHMDLVDTCVGTSVETNSVGISCQPECKNKVVGPELPMNWWIVKERVEMHDRCAGRSVEMCDKSVSVEVSVCETGSNTEESVNDLTLLKTNLNLKEVRSIGCGDCSVDVTVCSPKECASRGVNTEAVSQVEAAVMAVPRTADQDTSTDLEQVHQFTNTETATLIESCTNTCLSTLDKQTSTQTVETRTVAVGEGRVKDINSSTKTRSIGVGTLLSGHSGFDRPSAVKTKESGVGQININDNYLVGLKMRTIACGPPQLTVGLTASRRSVGVGDDPVGESLENPQPQAPLGMMTGLDHYIERIQKLLAEQQTLLAENYSELAEAFGEPHSQMGSLNSQLISTLSSINSVMKSASTEELRNPDFQKTSLGKITGNYLGYTCKCGGLQSGSPLSSQTSQPEQEVGTSEGKPISSLDAFPTQEGTLSPVNLTDDQIAAGLYACTNNESTLKSIMKKKDGNKDSNGAKKNLQFVGINGGYETTSSDDSSSDESSSSESDDECDVIEYPLEEEEEEEDEDTRGMAEGHHAVNIEGLKSARVEDEMQVQECEPEKVEIRERYELSEKMLSACNLLKNTINDPKALTSKDMRFCLNTLQHEWFRVSSQKSAIPAMVGDYIAAFEAISPDVLRYVINLADGNGNTALHYSVSHSNFEIVKLLLDADVCNVDHQNKAGYTPIMLAALAAVEAEKDMRIVEELFGCGDVNAKASQAGQTALMLAVSHGRIDMVKGLLACGADVNIQDDEGSTALMCASEHGHVEIVKLLLAQPGCNGHLEDNDGSTALSIALEAGHKDIAVLLYAHVNFAKAQSPGTPRLGRKTSPGPTHRGSFD
modifications: left off: mCherry, C-terminal, kept
On to B1, for which the “recruitment of mCherry–KANK1 to mitochondria by GFP–talin1–cBAK” value with GFP–talin1–cBAK is reported as “abolishes GFP–talin–cBAK mediated recruitment”. In addition, in the assay on talin1-cBAK, the “relative KANK1 binding to talin1-cBAK (%)” value is “not detected”. The “localization of mCherry–KANK1 to FAs / FA belt” value in assay [1] was “abolished localization to FAs and the FA belt”. Besides, the α/β liprin localization entry in assay [2] was “loss of α/β liprin from both the adhesion belt and the cellular cortex”.
